{
  "source": "patent US20120231006A1",
  "about": "(Amgen, published 2012)",
  "key": {"[1]": {"molecular_target": "T1, hOrai1-mOrai1 ECL2 (…) protein (human/mouse chimera, UniProt Q96D31 1-301)", "T1 construct": "also called Ch", "T1 sequence (Q96D31 other isoform, or with tags, fused parts or gaps)": "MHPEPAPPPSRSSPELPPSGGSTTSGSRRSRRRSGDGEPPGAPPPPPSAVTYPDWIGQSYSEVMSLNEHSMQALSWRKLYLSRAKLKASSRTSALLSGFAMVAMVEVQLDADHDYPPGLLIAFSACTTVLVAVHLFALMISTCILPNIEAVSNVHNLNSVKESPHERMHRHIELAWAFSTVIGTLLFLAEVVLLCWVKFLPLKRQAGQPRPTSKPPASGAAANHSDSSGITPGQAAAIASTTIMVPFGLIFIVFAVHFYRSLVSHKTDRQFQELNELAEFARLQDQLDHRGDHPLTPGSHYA", "test": "FACS, 293EBNA transfectants [D00032 FIG. 17B]", "protocol": "(§1) FACS binding analysis. Transfected 293EBNA cells transiently expressed hOrai1-mOrai1 ECL2 or mOrai1-hOrai1 ECL2 chimera. The transfected cells were harvested at 48 hours post-transfection. Cells transfected with pcDNA3.1 were used as negative controls. Cells were washed once with ice-cold 1×PBS, resuspended in ice-cold FACS buffer (1×D-PBS+2% goat serum), and 2×10⁵ cells in 100 μL were stained per antibody combination. All antibody incubation steps were performed on ice for 1 hour. […] Next, the unlabelled antibody was detected using goat F(ab′)₂ anti-mouse or anti-human IgG-phycoerythrin (IgG-PE), followed by a wash with 200 μL of ice-cold FACS buffer before flow cytometry analysis. Unstained cells and cells stained with detecting antibodies were used as negative controls. The values of relative level of fluorescence were calculated using FCS Express (De Novo Software) and mean values were calculated using log-transformed data (geometric mean). […]\n(§2) Representative results of FACS analysis of binding to the mutant hOrai1-mOrai1 ECL2 chimera described above by exemplary anti-hOrai1 antibodies of the present invention are shown in FIG. 17A-D, Table 10A and Table 10B below. Table 10A (Campaign 1) and Table 10B (Campaign 2) show the gain in binding ability of exemplary monoclonal antibodies to hOrai 1-mOrai 1 ECL2 chimera mutants as determined by FACS."}, "[2]": {"molecular_target": "T2, hOrai1-mOrai1 ECL2 (RPTSKPPA) protein (human/mouse chimera, UniProt Q96D31 1-301)", "T2 construct": "also called Ch", "T2 sequence (Q96D31 other isoform, or with tags, fused parts or gaps)": "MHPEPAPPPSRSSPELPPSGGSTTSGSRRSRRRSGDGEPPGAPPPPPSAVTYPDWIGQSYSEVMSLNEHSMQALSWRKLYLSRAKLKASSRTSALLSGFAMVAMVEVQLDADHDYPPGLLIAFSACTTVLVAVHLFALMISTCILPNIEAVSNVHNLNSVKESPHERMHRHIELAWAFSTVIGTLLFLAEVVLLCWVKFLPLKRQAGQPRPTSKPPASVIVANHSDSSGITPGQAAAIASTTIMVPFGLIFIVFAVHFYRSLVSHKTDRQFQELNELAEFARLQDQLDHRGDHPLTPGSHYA", "test": "FACS, 293EBNA transfectants [D00032 FIG. 17B]", "protocol": "as §1, §2"}, "[3]": {"molecular_target": "T3, mOrai1-hOrai1 ECL2 (AESVIV) protein (human/mouse chimera, UniProt Q8BWG9 1-304 (mouse entry))", "T3 construct": "also called Ch", "T3 sequence (Q8BWG9 other isoform, or with tags, fused parts or gaps)": "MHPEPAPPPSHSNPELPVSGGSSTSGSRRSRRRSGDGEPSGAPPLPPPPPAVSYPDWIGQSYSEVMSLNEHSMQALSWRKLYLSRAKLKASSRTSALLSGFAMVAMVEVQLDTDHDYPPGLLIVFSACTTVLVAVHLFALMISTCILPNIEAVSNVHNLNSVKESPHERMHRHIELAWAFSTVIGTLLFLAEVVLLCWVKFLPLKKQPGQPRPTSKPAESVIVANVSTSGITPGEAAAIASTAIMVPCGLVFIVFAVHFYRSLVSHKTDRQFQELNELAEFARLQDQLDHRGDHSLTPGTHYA", "test": "FACS, 293EBNA transfectants [D00030 FIG. 16D]", "from_the_text": "(§3) FIG. 16A-D illustrates the results of FACS analysis showing binding to the indicated mOrai1-hOrai1 ECL2 chimeric mutants expressed on the surface of HEK-293-EBNA cells. Transfected cells were stained first with recombinant monoclonal antibodies then counter-stained with a secondary phycoerythrin-labeled goat (“Gt”) anti-human (“Hu”) IgG F(ab′)₂ antibody fragment and visualized using FACS. In FIG. 16B and FIG. 16D, The values of Relative Fluorescence Intensity as Percent of Control (RFI-POC) are calculated from the relative fluorescence intensity geometric mean (Geo Mean). The geometric mean is an average calculated by multiplying a series of numbers and taking the nth root where n is the number of numbers in the series. It is a statistical average of a set of transformed numbers often used to represent a central tendency in a highly variable data set that minimizes the effects of extreme values.\n(§4) Table 11A and Table 11B feature a schematic representation of the POC data from FIG. 16B and FIG. 16D, respectively, where the binding results are recorded as (+++) denoting binding POC from 40% to 100%, (++) for POC of 5% to less than 40%, (+) for POC from 1% to less than 5% and (−) as lack of binding with POC less than 1%."}, "[4]": {"molecular_target": "T4, mOrai1-hOrai1 ECL2 (…) protein (human/mouse chimera, UniProt Q8BWG9 1-304 (mouse entry))", "T4 construct": "also called Ch", "T4 sequence (Q8BWG9 other isoform, or with tags, fused parts or gaps)": "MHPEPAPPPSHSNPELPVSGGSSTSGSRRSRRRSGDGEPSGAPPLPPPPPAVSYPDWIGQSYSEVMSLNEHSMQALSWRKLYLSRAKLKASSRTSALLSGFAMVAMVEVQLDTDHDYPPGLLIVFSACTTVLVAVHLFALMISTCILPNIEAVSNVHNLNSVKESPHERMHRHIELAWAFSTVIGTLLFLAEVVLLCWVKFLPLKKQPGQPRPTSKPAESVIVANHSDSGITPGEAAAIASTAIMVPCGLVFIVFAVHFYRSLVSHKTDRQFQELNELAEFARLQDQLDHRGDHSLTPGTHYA", "test": "FACS, 293EBNA transfectants [D00030 FIG. 16D]", "from_the_text": "as §3, §4"}, "[5]": {"molecular_target": "cynomolgus Orai1 (cynomolgus monkey, UniProt Q96D31 1-301 (human entry))", "sequence (Q96D31 other isoform, or with tags, fused parts or gaps)": "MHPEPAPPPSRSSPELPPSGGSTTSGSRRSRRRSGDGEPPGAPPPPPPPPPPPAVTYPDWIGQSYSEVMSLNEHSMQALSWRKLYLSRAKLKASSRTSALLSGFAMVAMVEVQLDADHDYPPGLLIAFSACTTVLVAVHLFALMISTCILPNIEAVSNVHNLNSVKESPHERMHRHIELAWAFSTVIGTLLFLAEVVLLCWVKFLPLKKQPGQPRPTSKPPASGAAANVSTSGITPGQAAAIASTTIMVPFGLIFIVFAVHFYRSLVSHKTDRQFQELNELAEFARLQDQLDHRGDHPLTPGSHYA", "test": "cell-based or functional assay"}, "[6]": {"molecular_target": "T3, mOrai1-hOrai1 ECL2 (AESVIV) protein", "test": "FACS, 293EBNA, RFI-POC grade", "design": "concentration or dose not given beside the values", "procedure,_shortened": "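HEK-293-EBNA cells expressing mOrai1-hOrai1 ECL2 chimeric mutants stained with recombinant monoclonal antibodies, then PE-labelled goat anti-human IgG F(ab′)2, and analysed by FACS. RFI-POC derived from geometric mean fluorescence; graded +++ (40–100%), ++ (5–<40%), + (1–<5%), − (<1%).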"}},
  "data": [
    {"binder": "mAb 2B4.1 (antibody, human IgG2, lambda, V domains shown) VH: QVQLVQSGAEVKKPGASVKVSCKASGYTFTDYYMHWVRQAPGQGLEWMGWINPNSGGTNYVQKFQDRVTMTRDTSITTAYMELTRLRSDDTAVYYCAREEGDYGMDVWGQGTTVTVSS VL: QSVLTQPPSVSGAPGQRVTISCTGSNSNIGTGYDVHWYQKLPGTAPRLLIYSHFNRPSGVPDRFSGSTSGTSASLAITGLQAEDEADYYCQSYDSSLSGSVFGGGTKLTVLG", "values": [
      {"measurement": "binding result", "setting": "[1]", "result": "binds"},
      {"measurement": "binding result", "setting": "[2]", "result": "binds"}
    ]},
    {"binder": "mAb 2D2.1 (antibody, human IgG2, lambda, V domains shown, fully human IgG2 lambda, Campaign 1; also called mAb 2D.1) VH: QVQLQQWGAGLLKPSETLSLTCAVYGGSFSGYYWSWIRQPPGKGLEWIGEIDHSGRINYNPALKSRLTISVDTSKNQFSLKLSSVTAADTAVYYCARAGSGGYEDWFDPWGQGTLVTVSS VL: QSVLTQPPSVSGAPGQRVTISCTGSSSNIGAGYNVHWYQQFPRTDPKLLIYVYNIRPSGVPDRFSGSRSGTSASLAITGLQTEDEADYYCQSYDSSLSGVVFGGGTKLTVLG", "values": [
      {"measurement": "binding result", "setting": "[3]", "result": "binds"},
      {"measurement": "binding result", "setting": "[4]", "result": "binds"}
    ]},
    {"binder": "mAb 2C1.1 (antibody, human IgG2, lambda, V domains shown, fully human IgG2 lambda, Campaign 1; tested hybridoma-purified and recombinant; also called anti-hOrai1 mAb 2C1.1) VH: QVQLQQWGAGLLKPSETLSLTCAVYGGSFSGYYWSWIRQPPGKGLEWIGEIDHSGSTNYNPALKSRLTISVDTSKNQFSLKLSSVTAADTAVYYCARAGSGGYEDWFDPWGQGTLVTVSS VL: QSVLTQPPSVSGAPGQRVTISCTGSSSNIGAGYNVHWYQQFPRTDPKLLIYVYNIRPSGVPDRFSGSRSGTSASLAITGLQTEDEADYYCQSYDSSLSGVVFGGGTKLTVLG", "values": [
      {"measurement": "IC50 IL-4 release, cynomolgus whole blood, Cyno # 1", "setting": "[5]", "result": 0.921, "unit": "nM"},
      {"measurement": "IC50 IL-4 release, cynomolgus whole blood, Cyno # 2", "setting": "[5]", "result": 6.34, "unit": "nM"},
      {"measurement": "IC50 IL-4 release, cynomolgus whole blood, Cyno # 3", "setting": "[5]", "result": 0.429, "unit": "nM"},
      {"measurement": "IC50 IL-5 release, cynomolgus whole blood, Cyno # 1", "setting": "[5]", "result": 1.56, "unit": "nM"},
      {"measurement": "IC50 IL-5 release, cynomolgus whole blood, Cyno # 2", "setting": "[5]", "result": 15.2, "unit": "nM"},
      {"measurement": "IC50 IL-5 release, cynomolgus whole blood, Cyno # 3", "setting": "[5]", "result": 0.815, "unit": "nM"},
      {"measurement": "IC50 IL-17 release, cynomolgus whole blood, Cyno # 1", "setting": "[5]", "result": 0.939, "unit": "nM"},
      {"measurement": "IC50 IL-17 release, cynomolgus whole blood, Cyno # 2", "setting": "[5]", "result": 0.95, "unit": "nM"},
      {"measurement": "IC50 IL-17 release, cynomolgus whole blood, Cyno # 3", "setting": "[5]", "result": 0.32, "unit": "nM"}
    ]},
    {"binder": "mAb 5B1.1 (antibody, human IgG2, lambda, V domains shown, fully human IgG2 lambda, Campaign 2; also called mAb 5Bl1.1) VH: QVQLVQSGAEVKKPGASVKVSCKASGYTFTDYYINWVRQAPGQGLEWMGWINPNSGGSSYAQKFQGRVTMTRDTSISTAHMELIRLRSDDTAVYYCARERGGIEDWFDPWGQGTLVTVSS VL: QSVLTQPPSVSGAPGQRVTISCTGSSSNIGAGYDVHWYQQLPGTAPKLLIYGNSNRPSGVPDRFSGSKSGTSASLAITKFQAEDEAVYYCQSYGSGLSGVVFGGGTKLTVLG", "values": [
      {"measurement": "POC (percent of control, FACS Geo Mean relative to binding to Ch. 1)", "setting": "[6]", "result": "1 to 5", "unit": "%"}
    ]}
  ]
}
